From patent publication US20240400718A1
Changes are numbered by the printed parent chain.

Assays:
[1] = molecular target: #231: CAR with VL-L1-VH scFv, Human 3rd-generation; experiment: subclone supernatant on HEK293T cells transiently expressing the scFv; % positive cells
[2] = molecular target: #231: CAR with VL-L1-VH scFv, Human 3rd-generation; experiment: flow cytometry on CAR-T cells; PE-labeled secondary antibody; PE-positive cells / total cells
#264: VH-L1-VL CAR-T = experiment: as above
#371: VL-L2-VH CAR-T = experiment: as above
Chain of #371: VL-L2-VH CAR-T (main, as listed by the source): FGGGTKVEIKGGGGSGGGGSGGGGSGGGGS
#628: VH-L2-VL CAR-T = experiment: as above
#651: VH-L2-VL CAR-T = experiment: as above
Chain of #651: VH-L2-VL CAR-T (main, as listed by the source): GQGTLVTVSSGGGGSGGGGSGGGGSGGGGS

[3] = molecular target: S#017: CAR with VH-L2-VL scFv, Human 3rd-generation_hIL7_hCCL19_HSVtk; experiment: as above
S#027: VH-L1-VL CAR-T = experiment: as above
[4] = molecular target: S#031: CAR with VH-L1-VL scFv, Human 3rd-generation_hIL7_hCCL19_HSVtk; experiment: as above
S#050: VH-L1-VL CAR-T = experiment: as above
S#066: VL-L2-VH CAR-T = experiment: as above
Chain of S#066: VL-L2-VH CAR-T (main, as listed by the source): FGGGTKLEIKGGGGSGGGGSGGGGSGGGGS

[5] = molecular target: S#067: CAR with VL-L1-VH scFv, Human 2nd-generation (4-1BB)_hIL7_hCCL19_HSVtk; experiment: as above
S#074: VL-L2-VH CAR-T = experiment: as above
[6] = molecular target: S#075: CAR with VL-L1-VH scFv, Human 2nd-generation (4-1BB)_hIL7_hCCL19_HSVtk; experiment: as above
S#076: VH-L2-VL CAR-T = experiment: as above
S#084: VL-L2-VH CAR-T = experiment: as above
S#085: VL-L1-VH CAR-T = experiment: as above
S#097: VL-L2-VH CAR-T = experiment: as above
S#104: VL-L1-VH CAR-T = experiment: as above

Chain of #231: CAR with VL-L1-VH scFv, Human 3rd-generation (main, as listed by the source): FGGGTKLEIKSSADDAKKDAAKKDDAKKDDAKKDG

B1: 3E7-C1 (antibody, V domains shown)
VH: QVQMKESGPGLVQPSETLSLTCTVSGFSLTSYGVSWVRQPSGKGPEWMGRLWNDGDTAYNSALKSRLSISRDTSKNQVFLKMNSLQTDDTGTYYCTTMNGYKDYWGQGVMVTVSS
VL: TSYELIQPPSASVTLGNTVSLTCVGDELPKRYAYWYQQKPDQSIVRVIYEDSKRPSGISDRFSGSSSGTTATLTIRDAQAEDEADYYCHSTYSDDKLRIFGGGTKLTVLG
Which results are given for B1?
Positive (%) [1]: 24.5%; Reactivity (%) [2]: 69.6%; Reactivity (%) (#264: VH-L1-VL CAR-T): 0%; Reactivity (%) (#371: VL-L2-VH CAR-T): 0%; Reactivity (%) (#628: VH-L2-VL CAR-T): 0%; Reactivity (%) (#651: VH-L2-VL CAR-T): 0.1%; Reactivity (%) [3]: 0%; Reactivity (%) (S#027: VH-L1-VL CAR-T): 0%; Reactivity (%) [4]: 2.2%; Reactivity (%) (S#050: VH-L1-VL CAR-T): 0.1%; Reactivity (%) (S#066: VL-L2-VH CAR-T): 0.1%; Reactivity (%) [5]: 41%; Reactivity (%) (S#074: VL-L2-VH CAR-T): 0.1%; Reactivity (%) [6]: 25.9%; Reactivity (%) (S#076: VH-L2-VL CAR-T): 0.1%; Reactivity (%) (S#084: VL-L2-VH CAR-T): 0%; Reactivity (%) (S#085: VL-L1-VH CAR-T): 41.4%; Reactivity (%) (S#097: VL-L2-VH CAR-T): 0%; Reactivity (%) (S#104: VL-L1-VH CAR-T): 21.5%

B2: 4B9-B11 (antibody, V domains shown)
VH: QMQLKESGPGLVQPSETLSLTCTVSGFSLTSYSVSWVRQPSGKGPEWMGRMYYDGDTAYNSALKSRLSISRDTSKNQVFLKMNSLQTDDTGTYYCTRSIGAEDYWGQGVMVTVSS
VL: B1 VL with A80N
Which results are given for B2?
Positive (%) [1]: 60%; Reactivity (%) [2]: 74.6%; Reactivity (%) (#264: VH-L1-VL CAR-T): 0%; Reactivity (%) (#371: VL-L2-VH CAR-T): 0.1%; Reactivity (%) (#628: VH-L2-VL CAR-T): 0.2%; Reactivity (%) (#651: VH-L2-VL CAR-T): 0.2%; Reactivity (%) [3]: 0%; Reactivity (%) (S#027: VH-L1-VL CAR-T): 1%; Reactivity (%) [4]: 9.7%; Reactivity (%) (S#050: VH-L1-VL CAR-T): 1.1%; Reactivity (%) (S#066: VL-L2-VH CAR-T): 0.1%; Reactivity (%) [5]: 41.5%; Reactivity (%) (S#074: VL-L2-VH CAR-T): 1.4%; Reactivity (%) [6]: 35.7%; Reactivity (%) (S#076: VH-L2-VL CAR-T): 0.2%; Reactivity (%) (S#084: VL-L2-VH CAR-T): 0.1%; Reactivity (%) (S#085: VL-L1-VH CAR-T): 49.6%; Reactivity (%) (S#097: VL-L2-VH CAR-T): 0.1%; Reactivity (%) (S#104: VL-L1-VH CAR-T): 29.1%

B3: 2D12-B12 (antibody, V domains shown)
VH: EVKLVESGGGLVQPGRSLKLSCAASGFNFNDYWMGWVRQAPGKGLEWIGEIKKDSSIINYIPSLKDKFTISRDNAQNTLYLQMSKLGSEDTAIYYCARGVEYYGYHYWGQGTLVTVSS
VL: DIVMTQSPSSLAVSAGETVTINCKSSQSLLYSGNQKNYLAWYQQKPGQSPKLLIYWASTRHSGVPARFIGSGSGSDFTLTISSVQAEDLAIYCCQQYYDIPYTFGAGTKLELK
B3 was tested. Which Reactivity (%) [2] did it give?
Its Reactivity (%) is 67.4%.

And the Reactivity (%) (#264: VH-L1-VL CAR-T)?
The Reactivity (%) was 11.1%.

And the Reactivity (%) (#371: VL-L2-VH CAR-T)?
Its Reactivity (%) is 0.2%.

And the Reactivity (%) (#628: VH-L2-VL CAR-T)?
Its Reactivity (%) is 0.2%.

And the Reactivity (%) (#651: VH-L2-VL CAR-T)?
Its Reactivity (%) is 0.4%.

And the Reactivity (%) [3]?
The Reactivity (%) was 0%.

What about the Reactivity (%) (S#027: VH-L1-VL CAR-T) of the same binder?
The Reactivity (%) was 28.4%.

What about the Reactivity (%) [4] of the same binder?
The Reactivity (%) was 64.6%.

What about the Reactivity (%) (S#050: VH-L1-VL CAR-T) of the same binder?
Its Reactivity (%) is 14.5%.

And the Reactivity (%) (S#066: VL-L2-VH CAR-T)?
Its Reactivity (%) is 0.9%.

And the Reactivity (%) [5]?
The Reactivity (%) was 34.9%.

And the Reactivity (%) (S#074: VL-L2-VH CAR-T)?
Its Reactivity (%) is 0.8%.

And the Reactivity (%) [6]?
Its Reactivity (%) is 15%.

What about the Reactivity (%) (S#076: VH-L2-VL CAR-T) of the same binder?
The Reactivity (%) was 0.2%.

What about the Reactivity (%) (S#084: VL-L2-VH CAR-T) of the same binder?
Its Reactivity (%) is 0.3%.

What about the Reactivity (%) (S#085: VL-L1-VH CAR-T) of the same binder?
The Reactivity (%) was 0.8%.

And the Reactivity (%) (S#097: VL-L2-VH CAR-T)?
The Reactivity (%) was 0.3%.

And the Reactivity (%) (S#104: VL-L1-VH CAR-T)?
The Reactivity (%) was 13.4%.

B4: 3A4-A10-7 (antibody, V domains shown)
VH: QVQLQQSGAALVKPGASVKMSCKASGYTFTDCWVSWVKQSHGKSLEWIGEIHPNSGTTNFNEKFKGKATLTVDKSTSTAYMELSRLTSEDSAIYYCTRAYGGYPFDYWGQGVMVTVSS
VL: ADLVLTQPKSVSTSLESTVKLSCKLNSGNIGRYYMHWYQQHEGRSPTNMIYRDDKRPDGVPDRFSGSIDSSSNSAFLTINNVQTEDEAIYFCHSYDSSINIFGGGTKLTVLG
Which results are given for B4?
Reactivity (%) [2]: 23.9%; Reactivity (%) (#264: VH-L1-VL CAR-T): 36.7%; Reactivity (%) (#371: VL-L2-VH CAR-T): 0.2%; Reactivity (%) (#628: VH-L2-VL CAR-T): 0.1%; Reactivity (%) (#651: VH-L2-VL CAR-T): 0.2%; Reactivity (%) [3]: 0%; Reactivity (%) (S#027: VH-L1-VL CAR-T): 45.7%; Reactivity (%) [4]: 45.3%; Reactivity (%) (S#050: VH-L1-VL CAR-T): 18.5%; Reactivity (%) (S#066: VL-L2-VH CAR-T): 0.2%; Reactivity (%) [5]: 22.3%; Reactivity (%) (S#074: VL-L2-VH CAR-T): 0.2%; Reactivity (%) [6]: 12.3%; Reactivity (%) (S#076: VH-L2-VL CAR-T): 0.2%; Reactivity (%) (S#084: VL-L2-VH CAR-T): 0.1%; Reactivity (%) (S#085: VL-L1-VH CAR-T): 2.2%; Reactivity (%) (S#097: VL-L2-VH CAR-T): 0.1%; Reactivity (%) (S#104: VL-L1-VH CAR-T): 5.2%
